Laboratory results published in paper PMC12152161 (2025).

Target: T1, His10 − MBP − KIF1C(714–809) (UniProt O43896 714-809)
T1 chain: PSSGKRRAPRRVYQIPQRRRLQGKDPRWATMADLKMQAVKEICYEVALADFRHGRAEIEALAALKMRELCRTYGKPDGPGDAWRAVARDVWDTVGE
Assay: ITC

B1: His10 − MBP−Hook3(553–624) (domain or fragment)
chain: EKLHEANNELQKKRAIIEDLEPRFNNSSLKIEELQEALRKKEEEMKQMEERYKKYLEKAKSVIRTLDPKQNQ
Ka: 631000 M⁻¹

B2: His10 − MBP − PTPN21(19–308) (domain or fragment)
chain: SKSCLVARIQLLNNEFVEFTLSVESTGQESLEAVAQRLELREVTYFSLWYYNKQNQRRWVDLEKPLKKQLDKYALEPTVYFGVVFYVPSVSQLQQEITRYQYYLQLKKDILEGSIPCTLEQAIQLAGLAVQADFGDFDQYESQDFLQKFALFPVGWLQDEKVLEEATQKVALLHQKYRGLTAPDAEMLYMQEVERMDGYGEESYPAKDSQGSDISIGACLEGIFVKHKNGRHPVVFRWHDIANMSHNKSFFALELANKEETIQFQTEDMETAKYIWRLCVARHKFYRLNQ
Ka: 194000 M⁻¹
